We go through 1 molecule from patent publication US20190359683A1 (Stanford University, published 2019).

Numbering of substitutions follows the chain as printed.

The target of one experiment is T1, mouse CLCF1 (mCLCF1) (mouse, UniProt Q9QZM3 28-225, limits assumed).
T1 construct: also called serum CLCF1 (mouse)
T1 sequence (looked up): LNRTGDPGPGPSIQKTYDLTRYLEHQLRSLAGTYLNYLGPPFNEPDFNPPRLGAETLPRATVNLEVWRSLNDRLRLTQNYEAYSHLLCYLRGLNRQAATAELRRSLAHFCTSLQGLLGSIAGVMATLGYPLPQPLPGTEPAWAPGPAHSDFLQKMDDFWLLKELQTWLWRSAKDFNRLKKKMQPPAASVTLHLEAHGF
Kind of experiment: ELISA. (In general: ELISA stands for enzyme-linked immunosorbent assay.)

The target in experiment [1] is T2, recombinantly produced ciliary neurotrophic factor (CNTF) (UniProt P26441 1-200, limits assumed).
T2 sequence (looked up): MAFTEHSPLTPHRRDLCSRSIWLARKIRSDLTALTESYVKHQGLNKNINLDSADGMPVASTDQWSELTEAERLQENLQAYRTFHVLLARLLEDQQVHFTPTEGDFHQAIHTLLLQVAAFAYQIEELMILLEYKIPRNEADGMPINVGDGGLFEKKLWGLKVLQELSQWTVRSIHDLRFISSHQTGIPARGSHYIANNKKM
In words: ELISA.

For experiment [2], the target named is T3, recombinant human cardiotrophin-like cytokine factor 1 (CLCF1) (human, UniProt Q9UBD9 28-225, limits assumed).
T3 construct: also called hCLCF1
T3 sequence (looked up): T1 sequence (looked up) with N63D, R73K, T126A, A141T, A143T, S188A, E194G
In words: ELISA: incubated with CLCF1 4 h at room temperature, complex captured on anti-mouse Fc plate, detected with rabbit anti-CLCF1.
Excerpt: Then the complexes were captured using microtiter plates coated with anti-his antibody or anti-mouse Fc antibody. […] The same approach was used to characterize binding interaction with the beta receptors.

B1: eCNTFR-Fc (soluble engineered CNTFR fused to mouse IgG2a Fc) (Fc fusion)
chain: QRHSPQEAPHVQYERLGSDVTLPCGTANWDAAVTWRVNGTDLAPDLLNGSQLVLHGLELGHSGLYACFHRDSWHLRHQVLLHVGLPPQEPVLSCRSNTYPKGFYCSWHLPTPTYIPNTFNVTVLHGSKIMVCEKDPALKNRCHIRYMHLFSPIKHNVSISVSNALGHNATAITFDEFTIVKPDPPENVVARPVPSNPRRLEVTWQTPSTWPDPEFFPLKFFLRYRPLILDQWQHVELSDGTAHTIAAAYAGKEYIIQVAAKDNEFGTWSDWSVAAHATPWTEEPRHLTTEAQAAETTTSTTSSLAPPPTTKICDPGELGSRRLEPRGPTIKPCPPCKCPAPNLLGGPSVFIFPPKIKDVLMISLSPIVTCVVVDVSEDDPDVQISWFVNNVEVHTAQTQTHREDYNSTLRVVSALPIQHQDWMSGKEFKCKVNNKDLPAPIERTISKPKGSVRAPQVYVLPPPEEEMTKKQVTLTCMVTDFMPEDIYVEWTNNGKTELNYKNTEPVLDSDGSYFMYSKLRVEKKNWVERNSYSCSVVHEGLHNHHTTKSFSRTPGK
notes: Made in HEK293; also called Fc fusion eCNTFR; engineered CLCF1 trap
As to B1, the binding result is “binds” with mouse CLCF1 (mCLCF1), “no binding” in experiment [1] and “binds” in experiment [2].
